{"source": "the DeepSol protein solubility set"}
{"assay": "soluble on expression in E. coli; label from the status in PepcDB or PDB records"}
{"sequence": "MSLATPSFGNSSPQLTFTHVANFMNDAAADVSAVDAKQLAQIRQFLKANKTNLIESLNTIRQNVTSSGDHNKLRSTIANLLQINVDNDPFFAQSEDLSHAVEFFMSERSSRLHIVYSLLVNPDIDLETYSFIDNDRFNVVGKLISIISSVIQNYDIITASSLAHDYNNDQDMFTIVSLVQLKKFSDLKFILQILQILNLMILNTKVPVDIVNQWFLQYQNQFVEFCRNINSTDKSIDTSSLQLYKFQNFQDLSYLSETLISRISSLFTITTILILGLNTSIAQFDIQSPLYMDTETFDTVNSALENDVATNIVNEDPIFHPMIHYSWSFILYYRRALQSSESFDDSDITKFALFAESHDVLQKLNTLSEILSFDPVYTTVITVFLEFSLNFIPITASTSRVFAKIISKAPEQFIENFLTNDTFEKKLSIIKAKLPLLNESLIPLINLALIDTEFANFELKDICSFAVTKSSLNDLDYDLIADTITNSSSSSDIIVPDLIELKSDLLVAPPLENENSNCLLSIPKSTKGKILTIKQQQQQQQNGQQPPTTSNLIIFLYKFNGWSLVGRILQNLLHSYMEKGTQLDDLQHELMISIIKLVTNVVDPKTSIEKSSEILSYLSNSLDTSASTINGASIIQVIFEIFEISLQRKDYTSIVQCCEFMTMLTPNYLHLVSSYLNKSDLLDKYGKTGLSNMILGSVELSTGDYTFTIQLLKLTKVFIRESLSLKNIHISKRSKIDIINKLILHAIHIFESYYNWKYNNFLQKFEIAFHLTLIFYDVLHDVFTINPHQKDQLIISSSANKLLQLFLTPMDSIDLAPNTLTNILISPLNTTTKILGDKILGNLYSKVMNNSFKLCTLLISIRGSNRDLKPSNLEKLLFINSSKLVDVYTLPSYVHFKVQIIELLSYLVEAPWNDDYPFLLSFLGEAKSMAFLKEVLSDLSSPVQDWNLLRSLYIFFTTLLESKQDGLSILFLTGQFASNKKINDESSIDKKSSILTVLQKNSLLLDSTPEEVSCKLLETITYVLNTWTNSKIFIKDPKFVNSLLAKLKDSKKLEGHHHHHH", "soluble on expression in E. coli": "not soluble"}
{"sequence": "MSLATTSTEPPTELSGEITMWHSFTQGPRLESIQKSADAFMQKHPKTKIKIETFSWNDFYTKWTTGLANGNVPDISTALPNQVMEMVNSDALVPLNDSIKRIGQDKFNETALNEAKIGDDYYSVPLYSHAQVMWVRTDLLKEHNIEVPKTWDQLYEASKKLKEAGVYGLSVPFGTNDLMATRFLNFYVRSGGGSLLTKDLKADLTSQLAQDGIKYWVKLYKEISPQDSLNFNVLQQATLFYQGKTAFDFNSGFHIGGINANSPQLIDSIDAYPIPKIKESDKDQGIETSNIPMVVWKNSKHPEVAKAFLEALYNEEDYVKFLDSTPVGMLPTIKGISDSAAYKENETRKKFKHAEEVITEAVKKGTAIGYENGPSVQAGMLTNQHIIEQMFQDIITNGTDPMKAAKEAEKQLNDLFEAVQEGHHHHHH", "soluble on expression in E. coli": "soluble"}
{"sequence": "MSLATTTSTDNTGLLDVLAPAYKKDTGVDLKWVAVGTGNALKLGENCDVDVVFVHAPKVELEYVEKGFGIDRTPVMYNDFVIIGNPSFKQKFTGMSVAEAFKLIEKEQVKFVSRGDKSGTHSKEREVWKEALGKIPEKESWYIEAGQGMLATINIAEEQKGLTLTDRGTFIKYESNHKGKPPMVIVLEGDNTLKNFYSIMAVNPKRCEKADYKGAKQFIDWIVSEKMQAEIANFKLLDKQLFTPDAKTREGHHHHHH", "soluble on expression in E. coli": "soluble"}
{"sequence": "MSLAVLAPRVASVGVHSIDHFALEVPDLSAAKVFFGAFGLAVDETIDGLELRASASDHVWARVLKGSRKQLAYLSLNCFGDDLAALTAQVETAGGKPCAAHAGAHDPEGFWFEDPDGNRLQIRTGDKTSPGLKKAAVAAKVRRGLRGAAARHEAPAVHPTRLSHVLLFTPDIERAIQFYRDALGLKFSDGSKGIVAFMHGRHGSDHHLVAFVQSSAKGWHHSAWDVPTVEEVGLGKMQMARAGFVDGWGVGRHVLGSNHFHYVRDPWGSFCEYSADIDFVPPGVEWPSADHPPEDSLYLWGPDVPAYFIENTEAQREGHHHHHH", "soluble on expression in E. coli": "soluble"}
{"sequence": "MSLAVTLKDVAEACGVSYSTVSKALKNSQLVKPNTKQMIQQKALEMNYIPNHSARALVSKKSGTIGLIWPSVDRVAVTHLITEINLAIKSLGYVMFVSIDDVAAASKKFVEFGCDGIIIFDEDETTNLPPEIYNNVPVVAYGVDRDIPYPIVNVNHAEAMIIAIKELLAKGIDRIDYIGDIHTNDARQIAKKDAIANYCEQHHIQYRMIDSSGLNAIEAETSVKHFLQESSLAPGVICGSYDITVGTINAMGSDEQPIIYSYDNIPQIKKIDYPVQAIGVPTAEIAQQVVAILDKVIKGEPIENTYHLHPSLSHNQEGHHHHHH", "soluble on expression in E. coli": "soluble"}
{"sequence": "MSLAVVASAVAGCGQVRVGQVEPAPGSPTRAQVEDMLGRVRVVAERGRPGGYDRDCGRGGGCVFGPAWTDDHGGAEGHNGCDTRNDVLAAQLSDVRYREGTRDCVVVAGTLRDPYTGRLLEFRKADARDVQIDHVYPLAAAWDLGAAGWSPEQRVRFANDTVTNLMATAGAVNQAKGDATPAEWMPPARANHCFYAGKYLTVAVRYDLPVTAADNAVLHAIARTCPEGHHHHHH", "soluble on expression in E. coli": "soluble"}
{"sequence": "MSLAYFGIYDGHGGAEASLYAKEHLMNTIVSQKLFWSENDDDVLKSIREGYIQTHYSMWREQEKWPKTSSGLPSTAGTTASIAFIRRGKIYIGHVGDSGIVLGYQNDKESANDGRWVATPLTEDHKPESYAEKMRIMSCGGKVVTKSGVPRVVWNRPRIGHKGPVRRSTPIDEIPFLAVARSLGDLWSYNSAMDEFVVSPVPDVSVIEIDPKKYRCLIFGSDGLWNVMSPKNAVDIVRNAEMENVRIALEGGNEWKNPSKLLVNEALDRWSRSNMKADNTSVVIIMLDPEGHHHHHH", "soluble on expression in E. coli": "not soluble"}
{"sequence": "MSLDAGRHRVALLVPLTGANAAVGQSIANAATMALLDTNAANMRITTYDTASGAGSAASRAISDGNKLILGPLLGNDVVLVSNVARPAKVPMITYSNDSAVASRDVFVMGQAPGQSVARVLGFAKSKGIGSVAAIIPTGDYGQRAMNAVVDSGRALGVTVTAIETYDRGNTSVASAVRRVKEKGRFDALLIADGSRIALQAAPLAGKGVKLLGTELWSGEAAIAKSPATRGSWFAAVSDGRFGQFEKSYRTRFGATPSRLATLGYDSVLLTLNVARNWKPGTTFPTAKLYDPQGFIGLDGVFRFTASGMAERAMEVREVGAGTFTTVSPAEGHHHHHH", "soluble on expression in E. coli": "soluble"}
{"sequence": "MSLDDESYEEEHKRMVLKIHQEFWDLPTNYQEKPLVFGSQAKNRYKTILPNEHSRVILEPERSPAAGGEPYINANYIKGPDYANNSYIATQGPLPNTIYEFWLMVYQNVVRTATVAGRSCASAGLEQKIVMLTNFVENGRQKCAIYFPQTADEWVAFGSGADIDVGEMLREKDTITASIAAAEQQPEGQEAVGGVCQPVTVRVPCASCFFLVHNVAVEQRNGYTVRTLNVIYGAKVSDADAPDGDGSRALFELTQFRAHHYWFPDWPDHRSPKDINVLLDLSLDVLGSNVVDTPRPESSNSLKGNQPGTPGLEEVMGAAQLAALSSSCTPTVLPIVHSSAGIGRTGCLIAILNGLRQLRLSVMAHQRKQQQLKQSQAQTGEAGQGELHGSEGRRKSTVQMDGATLLAPNAAVGRGGQREGSAVVRESGQVDILGIVCNLRLQRGGMVQNSEQYELIHRALCLYLEKLTQDGQEGHHHHHH", "soluble on expression in E. coli": "soluble"}
{"sequence": "MSLDDSYRIRHIVVKDEEEAREVLKELKGGSSFEAVAAERSTDRYTSPYGGDLGFVTEASDNIPSAYIEEAKTLKEDEWSQEPIKVSNGYAIIQLKEKLKARTFSFDEVKDQIRRQIAMDQLGDKATVKTLWKEADVSWFYGEKSTKEGHHHHHH", "soluble on expression in E. coli": "soluble"}
{"sequence": "MSLDEILKQEMQKELTTRILPYWMERMVDQENGGFYGRITGQEELMPRADKGAILNARILWTYSAAYRLLGREEYKEMANRAKRYLIDHFYDSEFGGVYWSLNYRGEPLDTKKQIYAIGFAIYGLSEFHRATGDPEALMYAVRLFNDIESHSFDGLKNGYCEALTREWNEIADMRLSEKDANERKTMNTHLHILEPYTNLYRVWKDARLERQLYNLIGLFTEKILDKDTSHLQLFFDNDWQSKYPVVSYGHDIEASWLLHEAARVLGDAGLIAEIEPVVKKIAAAASEGLTSDGGMIYEKNLTTGHIDGDYHWWVQAETVVGYYNLFRYFGDRGALQHSIDCWEFIKRHLTDDVHGEWFWSLRADGSLNRDDDKAGFWKCPYHNGRMCIELLGEGHHHHHH", "soluble on expression in E. coli": "soluble"}
{"sequence": "MSLDGSVAAAGLGLGLPTTDSRGHYQLLLSGRALADRYRRIYTTALSDRDQAGSSTGHPASRNKKILNKKKLKRKQKSKSKVKTRSKSENVENTVIIPDIKLHSNPSAFNIYCNVRHCVLEWQKKETSLAAASKNSVQSGESDSDEEEESREPPIKLPKIIEVGLCEVFELIKETRFSHPSLCLRSLQALLNVLQGQQPEGLQSEPPEVLESLFQLLLEITVRSTGMNDSTGQSLTALSCACLFSLVASWGETGRTLQAISAILTNNGSHACQTIQVPTILNSLQRSVQAVLVGKIQVQDWFSNGIKKAALMHKWPLKEVSVDEDDQCLLQNDGFFLYLLCKDGLYKIGSGYSGTVRGHIYNSTSRIRNRKEKKSWLGYAQGYLLYRDLNNHSMTAIRISPETLEQDGTVLLPDCHTEGQNILFTDGEYINQIAASRDDGFVVRIFATSTEPVLQQELQLKLARKCLHACGISLFDLEKDLHIISTGFDEESAILGAGREFALMKTANGKIYYTGKYQSLGIKQGGPSAGKWVELPITKSPKIVHFSVGHDGSHALLVAEDGSVFFTGSASKGEDGESTKSRRQSKPYKPKKIIKMEGKIVVYTACNNGSSSVISKDGELYMFGKDAIYSDSSSLVSDLKGHFVTQVAMGKAHTCVLMKNGEVWTFGVNNKGQCGRDTGAMNQGGKGFGVENMATAMDEDLEEELDEKDEGHHHHHH", "soluble on expression in E. coli": "not soluble"}
{"sequence": "MSLDHPPLCVLLVDDDSLVLDSTTLLLEDLGHRVIRAASGAQALQCLEQHRDIQLMISDMAMPHMDGRQLAEAVRRLHPQLPIILASGYAQRQDGPVPELPRIFKPFSQAQLRDALAQVLAQSAEGHHHHHH", "soluble on expression in E. coli": "soluble"}
{"sequence": "MSLDIEEARTTGIIDDKEAESRSESLEKAYLKTPLDPWKGEICTVSLSAAAHESRVVPISHKVGQVFEPSMDRDEARKLVLDLLDEYLFKNEKVLKIAVNLSFETKYAAKYGKYILGKVADPLIMWVRCLQIAAPQKINNPKKPTSGWGLKPATKHIFGVTMNDFSALLKKYKVNFFDEIDASKGEGLLYSAEDSDYAVQHYEYWSQIAAQISRYEEWLHKIEMPFTRVIGLMEYWGMNWDPNLATQKKQEAEIMQEQAAERIKQIAKETFNIDINTGKSGKTNEVKSLMFDYLKIPIAKYGKTGASLDQEALIDMAFMLENKLNDIDEEKYLGVSLPENWENIDPEKDPTLDKLERGAIRIAKREPHPYKEQALEVIDQLKKIQKYTTLLSSHIIGREKYLNFMSGRIHAGYSPFTETGRLNSFNPNGQNVPRPDNDEFKIRNFFVPKPGKILFFIDFSGFELRLMAWKSGDEVMTELFNTGGDMHRRTASVMTGKSEAEIVKKERTDAKAGNFGISYGGTEHALQFTFKTKYMIRKTLDECAQIVNAVKTAYKRIPEYQRKIVLEAREQGYVQTIYGYMRLLPGINSANRRDRGSAERQAANTPVQGSAADIMKKVQNEIYESIGKQEGVLSHGSADMIAQIHDEIIFEIDDDPEIVVAVEKQIKQVMEQPPVPGFPVPIEAEGSVGYRWGEKMSVESWLKQREGHHHHHH", "soluble on expression in E. coli": "soluble"}
{"sequence": "MSLDIMITHKKIYSSLLNTKSRLNFKDTVQSGQSFRWNLNETLKSYYSSVIYNSIIFICEINSEMIEVLCTDQELSGKPINEFLKHLFSLDFQEETVFSSRFQQEFPEVWNLVQSYRSVRVMRQDPFEIMVTFMCAQGIGMHLIRRQVSMIAERYGQKIMLELPEGNLTFHSFPPPQALASADPNELAVCTNNNRIRAANIIAMARSFESGKLALACVDSGKCDLETLRETLCVHSGIGLKIADCIALFGLGRFDAFPIDTHVKQYLWEWFGIEEARHSLTEKNYRILQEKARAILGAEYAGYAGHILFHCWRKEVKKMKAEGHHHHHH", "soluble on expression in E. coli": "soluble"}
